Numbered stars: 1 amine (or outer) side, 2 acyl side, 3 side chain; on linkers, the order of the positions; unused ones are H or OH. Square brackets hold non-standard residues; d marks the D form. Ends that are not written are not given here. * marks the point of attachment. Pro(trans-4-NH2) = O=C([C@@H]1C[C@@H](N[*:3])CN1[*:1])[*:2]; Sni = (S)-nipecotic acid, O=C([C@H]1CCCN([*:1])C1)[*:2]; Bmf = rac-2-amino-3-phenyl-butyric acid; Gly(cPent) = N[C@H](C(=O)O)C1CCCC1; Hyp = O=C(O)[C@@H]1C[C@@H](O)CN1; dAoc(2) = CCCCCC[C@@H](N)C(=O)O; AR‑314‑145 = not defined here; AR‑314‑169 = not defined here; AR‑314‑170 = not defined here; AR‑314‑171 = not defined here; AR‑314‑172 = not defined here; AR‑385‑008 = not defined here; Aoc(2) = CCCCCC[C@H](N)C(=O)O; NMeL = CN[C@@H](CC(C)C)C(=O)O; Phg = N[C@H](C(=O)O)c1ccccc1; orn(Me2) = not defined here; Octanoyl = CCCCCCCC(=O)*; 1270 = not defined here; 1888 = not defined here; Adx = not defined here; Az3 = not defined here; Che = not defined here; Oct = not defined here; aze = not defined here; leu = not defined here; thz = not defined here; Occ = octanoic acid
T1: natriuretic peptide receptor-B (human)
T1 chain: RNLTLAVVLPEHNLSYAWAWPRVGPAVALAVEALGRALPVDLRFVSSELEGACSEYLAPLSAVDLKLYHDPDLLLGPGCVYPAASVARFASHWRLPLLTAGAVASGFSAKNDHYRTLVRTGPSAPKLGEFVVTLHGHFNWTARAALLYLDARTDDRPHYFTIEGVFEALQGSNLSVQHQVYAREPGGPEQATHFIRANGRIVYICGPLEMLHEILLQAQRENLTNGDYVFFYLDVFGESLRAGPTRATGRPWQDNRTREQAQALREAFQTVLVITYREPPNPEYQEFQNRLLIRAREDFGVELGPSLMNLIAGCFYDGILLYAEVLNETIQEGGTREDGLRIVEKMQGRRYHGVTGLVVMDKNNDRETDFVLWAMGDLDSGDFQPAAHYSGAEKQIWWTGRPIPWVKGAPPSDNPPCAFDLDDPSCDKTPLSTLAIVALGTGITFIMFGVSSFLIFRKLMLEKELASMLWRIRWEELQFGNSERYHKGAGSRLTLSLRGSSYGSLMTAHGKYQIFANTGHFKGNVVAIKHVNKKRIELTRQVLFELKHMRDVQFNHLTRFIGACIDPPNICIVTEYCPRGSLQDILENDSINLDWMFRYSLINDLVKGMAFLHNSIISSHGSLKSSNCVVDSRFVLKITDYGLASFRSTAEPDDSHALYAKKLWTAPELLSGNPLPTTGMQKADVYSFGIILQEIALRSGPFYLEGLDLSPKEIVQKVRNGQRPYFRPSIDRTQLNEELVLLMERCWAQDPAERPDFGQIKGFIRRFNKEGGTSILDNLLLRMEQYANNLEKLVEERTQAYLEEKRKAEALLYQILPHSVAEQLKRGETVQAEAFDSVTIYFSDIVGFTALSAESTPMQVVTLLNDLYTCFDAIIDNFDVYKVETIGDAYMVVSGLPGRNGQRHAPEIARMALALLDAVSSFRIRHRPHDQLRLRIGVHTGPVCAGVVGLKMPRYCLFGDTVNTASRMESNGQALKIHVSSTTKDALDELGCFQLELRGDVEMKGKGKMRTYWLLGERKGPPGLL


Target: T1, natriuretic peptide receptor-B
Assay: cell-based or functional assay

Binder	EC50 group, cGMP in GTM-3 cells [µM]
1270-[Aoc(2)][Sni]FLL[Hyp][NMeL]DRI-NH2 (not fully specified (some residues); printed as (1270)-Hgl-Sni-Phe-leu-Leu-Hyp-Nml-Asp-Arg-Ile-NH2; reading uncertain) [JAL-1805]	≤ 15
[Oct][Sni]F[leu]L[Pro(trans-4-NH2)][NMeL]VP[Che] (reading uncertain; also: printed as Oct-Sni-Phe-leu-Leu-Tap-Nml-Val-Pro-Che) [JAL-1844]	≤ 5
[Occ][Sni]F[orn(Me2)]L[Pro(trans-4-NH2)][NMeL]VP[Che] (reading uncertain; also: printed as Occ-Sni-Phe-orn(Me2)-Leu-Tap-Nml-Val-Pro-Che) [JAL-1846]	≤ 5
1888-[Aoc(2)][Sni]FLL[Hyp][NMeL]DRI-NH2 (not fully specified (some residues); printed as (1888)-Hgl-Sni-Phe-leu-Leu-Hyp-Nml-Asp-Arg-Ile-NH2; reading uncertain) [JAL-1806]	≤ 5
H-[Adx][Aoc(2)][Sni]FLL[Hyp][NMeL]DRI-NH2 (not fully specified (residue 5); printed as H-Adx-Hgl-Sni-Phe-leu-Leu-Hyp-Nml-Asp-Arg-Ile-NH2; reading uncertain) [JAL-1808]	≤ 1
Octanoyl-[Aoc(2)][Sni]FLL[Hyp][NMeL]DRI-NH2 (not fully specified (some residues); printed as Occ-Hgl-Sni-Phe-leu-Leu-Hyp-Nml-Asp-Arg-Ile-NH2) [JAL-1807]	≤ 15
[Occ][Az3]FGLKLDRI-NH2 (reading uncertain; also: printed as Occ-Az3-Phe-Gly-Leu-Lys-Leu-Asp-Arg-Ile-NH2) [JAL-0742]	≤ 15
Octanoyl-[thz]FGLKLDRI-NH2 (reading uncertain; also: printed as Occ-thz-Phe-Gly-Leu-Lys-Leu-Asp-Arg-Ile-NH2) [JAL-0739]	≤ 15
[Oct][Sni]F[leu]L[Hyp][NMeL]VR[Che] (reading uncertain; also: printed as Oct-Sni-Phe-leu-Leu-Hyp-Nml-Val-Arg-Che) [JAL-1848]	≤ 5
1888-[dAoc(2)][Sni]FLL[Hyp][NMeL]DRI-NH2 (not fully specified (some residues); printed as 1888-hgl-Sni-Phe-leu-Leu-Hyp-Nml-Asp-Arg-Ile-NH2; reading uncertain) [JAL-1837]	≤ 5
H-[Adx][dAoc(2)][Sni]F[leu]L[Hyp][NMeL]DRI-NH2 (reading uncertain; also: printed as H-Adx-hgl-Sni-Phe-leu-Leu-Hyp-Nml-Asp-Arg-Ile-NH2) [JAL-1838]	≤ 5
[Occ][Sni]F[orn(Me2)]L[Hyp][NMeL]VP[Che] (reading uncertain; also: printed as Occ-Sni-Phe-orn(Me2)-Leu-Hyp-Nml-Val-Pro-Che) [JAL-1845]	≤ 5
[Oct][Sni]F[orn(Me2)]L[Hyp][NMeL]VP[Che] (reading uncertain; also: printed as Oct-Sni-Phe-orn(Me2)-Leu-Hyp-Nml-Val-Pro-Che) [JAL-1847]	≤ 15
[Oct][Sni]F[leu]L[Pro(trans-4-NH2)][NMeL]DR[Che] (reading uncertain; also: printed as Oct-Sni-Phe-leu-Leu-Tap-Nml-Asp-Arg-Che) [JAL-1843]	≤ 1
Octanoyl-[aze]FGLKLDRI-NH2 (reading uncertain; also: printed as Occ-aze-Phe-Gly-Leu-Lys-Leu-Asp-Arg-Ile-NH2) [JAL-0740]	≤ 15

The remaining lines, values ahead:

EC50 group, cGMP in GTM-3 cells [µM]	Binder
≤ 15	[Occ][Sni]F[leu]L[Hyp][NMeL][AR‑314‑145]RI-NH2 (reading uncertain; also: printed as Occ-Sni-Phe-leu-Leu-Hyp-Nml-(AR-314-145)-Arg-Ile-NH2) [JAL-1864]
≤ 15	[Occ][Sni]F[leu]L[Hyp][NMeL][Bmf]RI-NH2 (reading uncertain; also: printed as Occ-Sni-Phe-leu-Leu-Hyp-Nml-Bmf-Arg-Ile-NH2) [JAL-1857]
≤ 1	[Occ][Sni]F[orn(Me2)]L[Pro(trans-4-NH2)][NMeL]VR[Che] (reading uncertain; also: printed as Occ-Sni-Phe-orn(Me2)-Leu-Tap-Nml-Val-Arg-Che) [JAL-1850]
≤ 5	[Oct][Sni]F[leu]L[Pro(trans-4-NH2)][NMeL]VR[Che] (reading uncertain; also: printed as Oct-Sni-Phe-leu-Leu-Tap-Nml-Val-Arg-Che) [JAL-1849]
≤ 5	[Oct][Sni]F[orn(Me2)]L[Hyp][NMeL]VR[Che] (reading uncertain; also: printed as Oct-Sni-Phe-orn(Me2)-Leu-Hyp-Nml-Val-Arg-Che) [JAL-1851]
≤ 5	[AR‑314‑172][leu]L[Hyp][NMeL]DRI-NH2 (reading uncertain; also: printed as (AR-314-172)-leu-Leu-Hyp-Nml-Asp-Arg-Ile-NH2) [JAL-1874]
≤ 15	[Occ][Sni]F[leu]L[Hyp][NMeL][Phg]RI-NH2 (reading uncertain; also: printed as Occ-Sni-Phe-leu-Leu-Hyp-Nml-Phg-Arg-Ile-NH2) [JAL-1858]
≤ 5	[AR‑314‑169]F[leu]L[Hyp][NMeL]DRI-NH2 (reading uncertain; also: printed as (AR-314-169)-Phe-leu-Leu-Hyp-Nml-Asp-Arg-Ile-NH2) [JAL-1868-2]
≤ 15	[AR‑385‑008][leu]L[Hyp][NMeL]DRI-NH2 (reading uncertain; also: printed as (AR-385-008)-leu-Leu-Hyp-Nml-Asp-Arg-Ile-NH2) [JAL-1873]
≤ 5	[Occ][Sni]F[leu]L[Hyp][NMeL][Gly(cPent)]RI-NH2 (reading uncertain; also: printed as Occ-Sni-Phe-leu-Leu-Hyp-Nml-Cpg-Arg-Ile-NH2) [JAL-1859]
≤ 15	[AR‑314‑170]F[leu]L[Hyp][NMeL]DRI-NH2 (reading uncertain; also: printed as (AR-314-170)-Phe-leu-Leu-Hyp-Nml-Asp-Arg-Ile-NH2) [JAL-1869-2]
≤ 15	[AR‑314‑171]F[leu]L[Hyp][NMeL]DRI-NH2 (reading uncertain; also: printed as (AR-314-171)-Phe-leu-Leu-Hyp-Nml-Asp-Arg-Ile-NH2) [JAL-1870-2]
